The values that follow are results of earlier work, collected in paper PMC7911819.

This data set has as its target calmodulin (Homo sapiens) (UniProt P0DP23).

With CyaA 1-370 (from UniProt P0DKX7), the equilibrium dissociation constant (Kd) is < 0.1 nM.

As usually defined, the Kd is the constant that tells how readily two partners part at equilibrium.
